# Source: patent US20160235810A1, “METHODS OF TREATING DIABETES AND RELATED DISORDERS” (NOVARTIS AG, priority 2013, published 2016)
# B1: mouse PIP: mouse prolactin-inducible protein, delivered as DNA in pLEV113 vector via hydrodynamic injection (full length native and Fc-tagged tested) (protein, UniProt P02816 27-146, looked up)
# Prolactin-inducible protein …: QDDENVRKPLLIEIDVPSTAQENQEITVQVTVETQYRECMVIKAYLVSNEPMEGAFNYVQTRCLCNDHPIRFFWDIIITRTVTFATVIDIVREKNICPNDMAVVPITANRYYTYNTVRMN
# B2: human PIP: human prolactin-inducible protein (GenBank NP_002643), here delivered via HDI of vector (protein, UniProt P12273 29-146, looked up)
# Prolactin-inducible protein: QDNTRKIIIKNFDIPKSVRPNDEVTAVLAVQTELKECMVVKTYLISSIPLQGAFNYKYTACLCDDNPKTFYWDFYTNRTVQIAAVVDVIRELGICPDDAAVIPIKNNRFYTIEILKVE
# B3: FGF-21: Fibroblast Growth factor 21, an endocrine hormone; proposed fusion partner (protein)
# chain: HPIPDSSPLLQFGGQVRQRYLYTDDAQQTEAHLEIREDGTVGGAADQSPESLLQLKALKPGVIQILGVKTSRFLCQRPDGALYGSLHFDPEACSFRELLLEDGYNVYQSEAHGLPLHLPGNKSPHRDPAPRGPARFLPLPGLPPALPEPPGILAPQPPDVGSSDPLSMVGPSQGRSPSYAS
# Tests used:
# [1] = tested on: high fat diet-induced obese (DIO) mice; experiment: OGTT after hydrodynamic injection (HDI) of vector encoding PIP/Sval1 in high fat DIO mice; format: in vivo
# Excerpt: To ascertain if this newly implicated factor can replicate some of the benefits shown by the RYGB surgery, a hydrodynamic gene delivery method was developed in-house. We tested the effect of delivery of DNA encoding the secreted factor PIP in vivo. The Fc-fusion proteins of PIP was encoded in pLEV113 vector, which was delivered via hydrodynamic injection (HDI) in high fat diet-induced obese (DIO) mice.
# Mice, that were maintained for 12 weeks on high fat diet (60% Kcal fat, Research Diets), were sorted into groups based on their body weights and fed blood glucose levels. On the day of HDI of the PIP vector or control pLEV113 vector (30 ug/mouse), mice were placed in a restrainer and tails were cleaned with 70% alcohol. A 27-G butterfly needle connected with a 3 ml syringe was inserted into the tail vain, with bevel facing up, and pulled backwards on the syringe plunger to ensure blood was drawn into the syringe. The desired volumes (7% of body weight, up to a total of 3.2 mL) of DNA construct solution was injected over a short period (5-10 seconds) by hand. The needle was then withdrawn and bleeding stopped by adding pressure to the injection site with gauze.
# After the HDI procedure, mice were monitored twice daily in the first 48 hours and then once per day for a week. Basal fed blood glucose levels in mice were measured at day 14, and blood samples were collected to obtain plasma for measuring Fc level or for endogenous protein levels in the future.
# At day 16 post-HDI an OGTT was conducted to evaluate glucose handling and beta cell function. Basal and glucose-stimulated glucose and insulin levels were measured over 2-3 hours during the OGTT.
# At day 30, basal blood glucose levels, changes in weight or food intake, and another functional tests, such as an OGTT, were performed for a 2nd time.
# At day 40 post-HDI, the study was terminated by euthanization of mice and plasma collected for key metabolic biomarkers.
# [2] = tested on: diabetic non-human primates; details: Kharitonenkov et al. 2007; cited from earlier work
molecule,measurement,setting,value
B1,reduction in glucose area under the curve during an OGTT,"[1]; hydrodynamic gene delivery, high fat DIO mice, glucose AUC 0-120 min, compared to vector control group",30%
same,increase in insulin area under the curve (GSIS) during an OGTT,"[1]; hydrodynamic gene delivery, high fat DIO mice, insulin AUC 0-30 min, compared to vector control group",72%
B2,beta cell function compared to mouse Sval1,[1]; HDI administration in DIO mice,improved beta cell function similar to that of mouse Sval1
B3,increase in HDL cholesterol,[2],~80%
